Laboratory results reported in article PMC7582152 (2020).

B1: wild-type canine cardiac calsequestrin (Casq2) [canine] / ER luminal domain of IRE1α (IRE1-NLD) [modified: covalently labeled with a red fluorescent tag (Monolith NT Protein Labeling Kit RED-NHS); covalently labeled with a red fluorescent … (parent complex)
chain 1: EEGLNFPTYDGKDRVVSLTEKNFKQVLKKYDVLCLYYHESVSSDKVAQKQFQLKEIVLELVAQVLEHKDIGFVMVDAKKEAKLAKKLGFDEEGSLYVLKGDRTIEFDGEFAADVLVEFLLDLIEDPVEIINSKLEVQAFERIEDQIKLIGFFKSEESEYYKAFEEAAEHFQPYIKFFATFDKGVAKKLSLKMNEVDFYEPFMDEPIAIPDKPYTEEELVEFVKEHQRPTLRRLRPEDMFETWEDDLNGIHIVAFAERSDPDGYEFLEILKQVARDNTDNPDLSIVWIDPDDFPLLVAYWEKTFKIDLFKPQIGVVNVTDADSVWMEIPDDDDLPTAEELEDWIEDVLSGKINTEDDDNEEGDDGDDDEDDDDDDGNNSDEESNDDSDDDDE
chain 2: IFGSTSTVTLPETLLFVSTLDGSLHAVSKRTGSIKWTLKEDPVLQVPTHVEEPAFLPDPNDGSLYTLGSKNNEGLTKLPFTIPELVQASPCRSSDGILYMGKKQDIWYVIDLLTGEKQQTLSSAFADSLCPSTSLLYLGRTEYTITMYDTKTRELRWNATYFDYAASLPEDDVDYKMSHFVSNGDGLVVTVDSESGDVLWIQNYASPVVAFYVWQREGLRKVMHINVAVETLRYLTFMSGEVGRITKWKYPFPKETEAKSKLTPTLYVGKYSTSLYASPSMVHEGVAVVPRGSTLPLLEGPQTDGVTIGDKGECVITPSTDVKFDPGLKSKNKLNYLRNYWLLIGHHETPLSASTKMLERFPNNLPKHRENVIPADSEKKSFEEVINLVDQTSENAPTTVSRDVEEKPAHAPARPEAPVDSMLKD

Variants of: B1
Test: microscale thermophoresis (MST); IRE1-NLD covalently labeled with a red fluorescent tag; increasing amounts of Casq2 or Casq2 mutant; three independent measurements; parent: 4.3e+03 nM; read off a plot

Compared with chain 1 EEGLNFPTYDGKDRVVSLTEKNFKQVLKKYDVLCLYYHESVSSDKVAQKQFQLKEIVLELVAQVLEHKDIGFVMVDAKKEAKLAKKLGFDEEGSLYVLKGDRTIEFDGEFAADVLVEFLLDLIEDPVEIINSKLEVQAFERIEDQIKHIGFFKSEESEYYKAFEEAAEHFQPYIKFFATFDKGVAKKLSLKMNEVDFYEPFMDEPIAIPDKPYTEEELVEFVKEHQRPTLRRLRPEDMFETWEDDLNGIHIVAFAERSDPDGYEFLEILKQVARDNTDNPDLSIVWIDPDDFPLLVAYWEKTFKIDLFKPQIGVVNVTDADSVWMEIPDDDDLPTAEELEDWIEDVLSGKINTEDDDNEEGDDGDDDEDDDDDDGNNSDEESNDDSDDDDE [chain 1 L148H], chain 1 EEGLNFPTYDGKDRVVSLTEKNFKQVLKKYDVLCLYYHESVSSDKVAQKQFQLKEIVLELVAQVLEHKDIGFVMVDAKKEAKLAKKLGFDEEGSLYVLKGDRTIEFDGEFAADVLVEFLLDLIEDPVEIINSKLEVQAFERIEDQIKLIGFFKSEESEYYKAFEEAAEHFQPYIKFFATFDKGVAKKLSLKMNEVDFYEPFMDEPIAIPDKPYTEEELVEFVKEHQRPTLRRLRPEDMFETWEDDLNGIHIVAFAERSDPDGYEFLEILKQVARDNTDNPDLSIVWIDPDDFPLLVAYWEKTFKIDLFKPQIGVVNVTDADSVWMEIPDDDGLPTAEELEDWIEDVLSGKINTEDDDNEEGDDGDDDEDDDDDDGNNSDEESNDDSDDDDE [chain 1 D332G] is 1.7-fold higher in Kd: ~2.8 µM for the first, ~4.8 µM for the second. The first binds more tightly here.

chain 1 EEGLNFPTYDGKDRVVSLTEKNFKQVLKKYDVLCLYYHESVSSDKVAQKQFQLKEIVLELVAQVLEHKDIGFVMVDAKKEAKLAKKLGFDEEGSLYVLKGDRTIEFDGEFAADVLVEFLLDLIEDPVEIINSKLEVQAFERIEDQIKLIGFFKSEESEYYKAFEEAAEHFQPYIKFFATFDKGVAKKLSLKMNEVDFYEPFMDEPIAIPDKPYTEEELVEFVKEHQRPTLRRLRPEDMFETWEDDLNGIHIVAFAERSDPDGYEFLEILKQVARDNTDNPDLSIVWIHPDDFPLLVAYWEKTFKIDLFKPQIGVVNVTDADSVWMEIPDDDDLPTAEELEDWIEDVLSGKINTEDDDNEEGDDGDDDEDDDDDDGNNSDEESNDDSDDDDE [chain 1 D288H] and chain 1 EEGLNFPTYDGKDRVVSLTEKNFKQVLKKYDVLCLYYHESVSSDKVAQKQFQLKEIVLELVAQVLEHKDIGFVMVDAKKEAKLAKKLGFDEEGSLYVLKGDRTIEFDGEFAADVLVEFLLDLIEDPVEIINSKLEVQAFERIEDQIKLIGFFKSEESEYYKAFEEAAEHFQPYIKFFATFDKGVAKKLSLKMNEVDFYEPFMDEPIAIPDKPYTEEELVEFVKEHQRPTLRRLRPEDMFETWEDDLNGIHIVAFAERSDPDGYEFLEILKQVARDNTDNPDLSIVWIDPDDFPLLVAYWEKTFKIDLFKPQIRVVNVTDADSVWMEIPDDDDLPTAEELEDWIEDVLSGKINTEDDDNEEGDDGDDDEDDDDDDGNNSDEESNDDSDDDDE [chain 1 G313R] are within 1.5-fold of each other in Kd: ~3.3 µM for the first, ~4.3 µM for the second.

First: chain 1 EEGLNFPTYDGKDQVVSLTEKNFKQVLKKYDVLCLYYHESVSSDKVAQKQFQLKEIVLELVAQVLEHKDIGFVMVDAKKEAKLAKKLGFDEEGSLYVLKGDRTIEFDGEFAADVLVEFLLDLIEDPVEIINSKLEVQAFERIEDQIKLIGFFKSEESEYYKAFEEAAEHFQPYIKFFATFDKGVAKKLSLKMNEVDFYEPFMDEPIAIPDKPYTEEELVEFVKEHQRPTLRRLRPEDMFETWEDDLNGIHIVAFAERSDPDGYEFLEILKQVARDNTDNPDLSIVWIDPDDFPLLVAYWEKTFKIDLFKPQIGVVNVTDADSVWMEIPDDDDLPTAEELEDWIEDVLSGKINTEDDDNEEGDDGDDDEDDDDDDGNNSDEESNDDSDDDDE [chain 1 R14Q]
Second: chain 1 EEGLNFPTYDGKDRVVSLTEKNFKQVLKKYDVLCLYYHESVSSDKVAQKQFQLKEIVLELVAQVLEHKDIGFVMVDAKKEAKLAKKLGFDEEGSLYVLKGDRTIEFDGEFAADVLVEFLLDLIEDPVEIINSKLEVQAFERIEDQIKLIGFFKSEESEYYKAFEEAAEHFQPYIKFFATFDKGVAKKLSLKMNEVDFYEPFMDEPIAIPDKPYTEEELVEFVKEHQRPTLRRLRPEDMFETWEDDLNGIHIVAFAERSDPDGYEFLEILKQVARDNTDNPDLSIVWIDPDDFPLLVAYWEKTFKIDLFKSQIGVVNVTDADSVWMEIPDDDDLPTAEELEDWIEDVLSGKINTEDDDNEEGDDGDDDEDDDDDDGNNSDEESNDDSDDDDE [chain 1 P310S]
The Kd of the first is 1.8-fold higher: ~5.9 µM for the first, ~3.2 µM for the second. The second binds more tightly here.

chain 1 EEGLNFPTYDGKDRVVSLTEKNFKQVLKKYDVLCLYYHESVSSDKVAQKQFQLKEIVLELVAQVLEHKDIGFVMVDAKKEAKLAKKLGFDEEGSLYVLKGDRTIEFDGEFAADVLVEFLLDLIEDPVEIINSKLEVQAFERIEDQIKLIGFFKSEESEYYRAFEEAAEHFQPYIKFFATFDKGVAKKLSLKMNEVDFYEPFMDEPIAIPDKPYTEEELVEFVKEHQRPTLRRLRPEDMFETWEDDLNGIHIVAFAERSDPDGYEFLEILKQVARDNTDNPDLSIVWIDPDDFPLLVAYWEKTFKIDLFKPQIGVVNVTDADSVWMEIPDDDDLPTAEELEDWIEDVLSGKINTEDDDNEEGDDGDDDEDDDDDDGNNSDEESNDDSDDDDE [chain 1 K161R] gave a Kd of ~1.4 µM.
